Measurements as given in paper PMC11417362, “Template-independent synthesis and 3′-end labelling of 2′-modified oligonucleotides with terminal deoxynucleotidyl transferases” (Nucleic Acids Research, 2024).

How the values were obtained:
[1] = substrate: Nc1ncnc2c1ncn2[C@H]1C[C@H](O)[C@@H](COP(=O)(O)OP(=O)(O)OP(=O)(O)O)O1; assay: purified protein; conditions: 100 nM ssDNA primer FAM-18G, 10 mM Mg(OAc)2, 1x TdT buffer (100 mM KCl, 30 mM Tris-acetate, 0.05% Triton X-100), pH 7.5, 37°C
[2] = substrate: Nc1nc2c(ncn2[C@@H]2O[C@H](COP(=O)(O)OP(=O)(O)OP(=O)(O)O)[C@@H](O)[C@@H]2F)c(=O)[nH]1; assay: steady-state primer extension, denaturing PAGE, Michaelis-Menten fit; type: biochemical, Bos taurus; conditions: 100 nM ssDNA primer FAM-18G, 10 mM Mg(OAc)2, 1x TdT buffer (100 mM KCl, 30 mM Tris-acetate, 0.05% Triton X-100), pH 7.5, 37°C
Source text: (§1) steady-state primer extension, denaturing PAGE, Michaelis-Menten fit on bovine TdT

[3] = substrate: Nc1ccn([C@@H]2O[C@H](COP(=O)(O)OP(=O)(O)OP(=O)(O)O)[C@@H](O)[C@@H]2F)c(=O)n1; assay: as above; type: biochemical, Bos taurus; conditions: 100 nM ssDNA primer FAM-18G, 10 mM Mg(OAc)2, 1x TdT buffer (100 mM KCl, 30 mM Tris-acetate, 0.05% Triton X-100), pH 7.5, 37°C
Source text: as §1

[4] = substrate: Nc1ncnc2c1ncn2[C@@H]1O[C@H](COP(=O)(O)OP(=O)(O)OP(=O)(O)O)[C@@H](O)[C@H]1F; assay: as above; type: biochemical, Bos taurus; conditions: 100 nM ssDNA primer FAM-18G, 10 mM Mg(OAc)2, 1x TdT buffer (100 mM KCl, 30 mM Tris-acetate, 0.05% Triton X-100), pH 7.5, 37°C
Source text: as §1

[5] = substrate: O=c1ccn([C@@H]2O[C@H](COP(=O)(O)OP(=O)(O)OP(=O)(O)O)[C@@H](O)[C@@H]2F)c(=O)[nH]1; assay: as above; type: biochemical, Bos taurus; conditions: 100 nM ssDNA primer FAM-18G, 10 mM Mg(OAc)2, 1x TdT buffer (100 mM KCl, 30 mM Tris-acetate, 0.05% Triton X-100), pH 7.5, 37°C
Source text: as §1

[6] = substrate: Nc1nc2c(ncn2[C@@H]2O[C@H](COP(=O)(O)OP(=O)(O)OP(=O)(O)O)[C@@H](O)[C@H]2F)c(=O)[nH]1; assay: as above; type: biochemical, Bos taurus; conditions: 100 nM ssDNA primer FAM-18G, 10 mM Mg(OAc)2, 1x TdT buffer (100 mM KCl, 30 mM Tris-acetate, 0.05% Triton X-100), pH 7.5, 37°C
Source text: as §1

[7] = substrate: Nc1ccn([C@H]2C[C@H](O)[C@@H](COP(=O)(O)OP(=O)(O)OP(=O)(O)O)O2)c(=O)n1; assay: as above; type: biochemical, Bos taurus; conditions: 100 nM ssDNA primer FAM-18G, 10 mM Mg(OAc)2, 1x TdT buffer (100 mM KCl, 30 mM Tris-acetate, 0.05% Triton X-100), pH 7.5, 37°C
Source text: as §1

[8] = substrate: Nc1ncnc2c1ncn2[C@@H]1O[C@H](COP(=O)(O)OP(=O)(O)OP(=O)(O)O)[C@@H](O)[C@@H]1F; assay: as above; type: biochemical, Bos taurus; conditions: 100 nM ssDNA primer FAM-18G, 10 mM Mg(OAc)2, 1x TdT buffer (100 mM KCl, 30 mM Tris-acetate, 0.05% Triton X-100), pH 7.5, 37°C
Source text: as §1

[9] = substrate: Cc1cn([C@H]2C[C@H](O)[C@@H](COP(=O)(O)OP(=O)(O)OP(=O)(O)O)O2)c(=O)[nH]c1=O; assay: purified protein, by the assay type; set-up: Steady-state single-nucleotide incorporation into primer FAM-18G, denaturing PAGE band quantification, Michaelis-Menten fit
Method: (§2) The steady-state kinetic experiments were performed as described previously with minor modifications ([61]). A 2× reaction solution was prepared by mixing 200 nM primer FAM-18G, 0–128 μM 2′-modified NTP and 20 mM Mg(OAc)2 in 2× TdT buffer. A 5 μl aliquot of pre-warmed 2× reaction solution was mixed with 5 μl of bovine TdT, MTdT-evo or murine TdT of varying concentration, and incubated at 37°C for a certain time. The reaction was then quenched by the addition of 10 μl of 2× TBE-urea sample buffer and incubation at 95°C for 10 min. The products were analysed with 20% denaturing PAGE gels containing 8 M urea. All gel bands were quantified using Quantity One analysis software (Bio-Rad). Km and kcat values were calculated by fitting the data to the Michaelis–Menten equation with GraphPad Prism 8 software. To quantify the activities of different TdTs for the incorporation of 2′-modified NTPs, steady-state kinetic experiments were carried out.

[10] = substrate: O=c1ccn([C@@H]2O[C@H](COP(=O)(O)OP(=O)(O)OP(=O)(O)O)[C@@H](O)[C@H]2F)c(=O)[nH]1; assay: purified protein, by the assay type; set-up: Steady-state single-nucleotide incorporation into primer FAM-18G, denaturing PAGE band quantification, Michaelis-Menten fit
Method: as §2

[11] = substrate: CO[C@@H]1[C@H](O)[C@@H](COP(=O)(O)OP(=O)(O)OP(=O)(O)O)O[C@H]1n1ccc(N)nc1=O; assay: purified protein, by the assay type; set-up: Steady-state single-nucleotide incorporation into primer FAM-18G, denaturing PAGE band quantification, Michaelis-Menten fit
Method: as §2

[12] = substrate: CO[C@@H]1[C@H](O)[C@@H](COP(=O)(O)OP(=O)(O)OP(=O)(O)O)O[C@H]1n1cnc2c(=O)[nH]c(N)nc21; assay: purified protein, by the assay type; set-up: Steady-state single-nucleotide incorporation into primer FAM-18G, denaturing PAGE band quantification, Michaelis-Menten fit
Method: as §2

B1: bovine TdT (Bos taurus) (protein)
chain: MDPLCTASSGPRKKRPRQVGASMASPPHDIKFQNLVLFILEKKMGTTRRNFLMELARRKGFRVENELSDSVTHIVAENNSGSEVLEWLQVQNIRASSQLELLDVSWLIESMGAGKPVEITGKHQLVVRTDYSATPNPGFQKTPPLAVKKISQYACQRKTTLNNYNHIFTDAFEILAENSEFKENEVSYVTFMRAASVLKSLPFTIISMKDTEGIPCLGDKVKCIIEEIIEDGESSEVKAVLNDERYQSFKLFTSVFGVGLKTSEKWFRMGFRSLSKIMSDKTLKFTKMQKAGFLYYEDLVSCVTRAEAEAVGVLVKEAVWAFLPDAFVTMTGGFRRGKKIGHDVDFLITSPGSAEDEEQLLPKVINLWEKKGLLLYYDLVESTFEKFKLPSRQVDTLDHFQKCFLILKLHHQRVDSSKSNQQEGKTWKAIRVDLVMCPYENRAFALLGWTGSRQFERDIRRYATHERKMMLDNHALYDKTKRVFLKAESEEEIFAHLGLDYIEPWERNA
notes: recombinant, plasmid pET30a-bovine TdT, E. coli BL21(DE3)
B1 was tested, and the Km [1] was 2.65 ± 0.76 µM, the kcat [1] was 0.00517 s⁻¹ and the kcat/Km [1] was 1950 M⁻¹ s⁻¹. The Km [2] was 2.91 ± 0.52 µM, the kcat [2] was 0.0638 ± 0.00417 s⁻¹ and the kcat/Km [2] was 22000 M⁻¹ s⁻¹. For the same protein, the Km [3] was 2.83 ± 0.69 µM, the kcat [3] was 0.0285 ± 0.00317 s⁻¹ and the kcat/Km [3] was 10100 M⁻¹ s⁻¹. It also gave a Km [4] of 0.97 ± 0.27 µM, a kcat [4] of 0.00933 ± 0.0011 s⁻¹ and a kcat/Km [4] of 9620 M⁻¹ s⁻¹. It also gave a Km [5] of 2.63 ± 0.77 µM, a kcat [5] of 0.0148 ± 0.00065 s⁻¹ and a kcat/Km [5] of 5630 M⁻¹ s⁻¹. The Km [6] was 4.03 ± 0.52 µM, the kcat [6] was 0.0182 ± 0.000483 s⁻¹ and the kcat/Km [6] was 4500 M⁻¹ s⁻¹. For the same protein, the Km [7] was 3.14 ± 0.46 µM, the kcat [7] was 0.02 ± 0.001 s⁻¹ and the kcat/Km [7] was 6370 M⁻¹ s⁻¹. For the same protein, the Km [8] was 2.23 ± 0.32 µM, the kcat [8] was 0.0443 ± 0.00717 s⁻¹ and the kcat/Km [8] was 19800 M⁻¹ s⁻¹. The Km [9] was 4.19 ± 0.91 µM, the kcat [9] was 0.0075 ± 0.000833 s⁻¹ and the kcat/Km [9] was 1780 M⁻¹ s⁻¹. The Km [10] was 5.33 ± 1.58 µM, the kcat [10] was 0.00267 ± 0.000112 s⁻¹ and the kcat/Km [10] was 500 M⁻¹ s⁻¹. The Km [11] was 5.87 ± 0.76 µM, the kcat [11] was 0.0004 ± 5.83e-05 s⁻¹ and the kcat/Km [11] was 68.2 M⁻¹ s⁻¹. The Km [12] was 6.10 ± 1.50 µM, the kcat [12] was 0.000683 ± 2.17e-05 s⁻¹ and the kcat/Km [12] was 112 M⁻¹ s⁻¹.
